Assay results published in US20210230294A1 (Incyte, published 2021).

B1: CL25_hu_8-4 (antibody, V domains shown)
VH: QVQLVQSGAEVKKPGASVKVSCKASGYTFTSYGLSWVRQATGQGLEWMGEIYPGSGNTYYNEKFKGRVTMTRNTSISTAYMELSSLRSEDTAVYYCARYDYLGSSYGFDYWGAGTTVTVSS
VL: DIQMTQSPSSLSASVGDRVTITCKASQDVSTAVAWYQQKPGKAPKLLLYSASYRYSGVPSRFSGSGSGTDYTLTISSLQPEDFATYYCQQHYNTPYTFGGGTKLEIK
notes: Humanized CL25 antibody; captured by anti-human Fc in SPR
B2: CL25_hu_11-5 (antibody, V domains shown)
VH: QVQLVQSGAEVKKPGASVKVSCKASGYTFTSYGLSWVRQATGQGLEWMGEIYPGSGNTYYNEKFKGRVTMTANTSISTAYMELSSLRSEDTAVYYCARYDYLGSSYGFDYWGAGTTVTVSS
VL: DIVMTQSPDSLAVSLGERATINCKASQDVSTAVAWYQQKPGQPPKLLIYSASYRYSGVPDRFSGSGSGTDFTLTISSLQAEDVAVYYCQQHYNTPYTFGGGTKLEIK
notes: Humanized CL25 antibody
B3: CL25_hu_9-6 (antibody, V domains shown)
VH: QVQLVQSGAEVKKPGSSVKVSCKASGYTFTSYGLSWVRQAPGQGLEWMGEIYPGSGNTYYNEKFKGRVTITADESTSTAYMELSSLRSEDTAVYYCARYDYLGSSYGFDYWGAGTTVTVSS
VL: AIRMTQSPSSFSASTGDRVTITCKASQDVSTAVAWYQQKPGKAPKLLIYSASYRYSGVPSRFSGSGSGTDFTLTISCLQSEDFATYYCQQHYNTPYTFGGGTKLEIK
notes: Humanized CL25 antibody
B4: CL25_hu_11-6 (antibody, V domains shown)
VH: QVQLVQSGAEVKKPGASVKVSCKASGYTFTSYGLSWVRQATGQGLEWMGEIYPGSGNTYYNEKFKGRVTMTANTSISTAYMELSSLRSEDTAVYYCARYDYLGSSYGFDYWGAGTTVTVSS
VL: AIRMTQSPSSFSASTGDRVTITCKASQDVSTAVAWYQQKPGKAPKLLIYSASYRYSGVPSRFSGSGSGTDFTLTISCLQSEDFATYYCQQHYNTPYTFGGGTKLEIK
notes: Humanized CL25 antibody
B5: CL25_hu_9-5 (antibody, V domains shown)
VH: QVQLVQSGAEVKKPGSSVKVSCKASGYTFTSYGLSWVRQAPGQGLEWMGEIYPGSGNTYYNEKFKGRVTITADESTSTAYMELSSLRSEDTAVYYCARYDYLGSSYGFDYWGAGTTVTVSS
VL: DIVMTQSPDSLAVSLGERATINCKASQDVSTAVAWYQQKPGQPPKLLIYSASYRYSGVPDRFSGSGSGTDFTLTISSLQAEDVAVYYCQQHYNTPYTFGGGTKLEIK
notes: Humanized CL25 antibody
B6: CL25_hu_8-6 (antibody, V domains shown)
VH: QVQLVQSGAEVKKPGASVKVSCKASGYTFTSYGLSWVRQATGQGLEWMGEIYPGSGNTYYNEKFKGRVTMTRNTSISTAYMELSSLRSEDTAVYYCARYDYLGSSYGFDYWGAGTTVTVSS
VL: AIRMTQSPSSFSASTGDRVTITCKASQDVSTAVAWYQQKPGKAPKLLIYSASYRYSGVPSRFSGSGSGTDFTLTISCLQSEDFATYYCQQHYNTPYTFGGGTKLEIK
notes: Humanized CL25 antibody
B7: CL25_hu_8-5 (antibody, V domains shown)
VH: QVQLVQSGAEVKKPGASVKVSCKASGYTFTSYGLSWVRQATGQGLEWMGEIYPGSGNTYYNEKFKGRVTMTRNTSISTAYMELSSLRSEDTAVYYCARYDYLGSSYGFDYWGAGTTVTVSS
VL: DIVMTQSPDSLAVSLGERATINCKASQDVSTAVAWYQQKPGQPPKLLIYSASYRYSGVPDRFSGSGSGTDFTLTISSLQAEDVAVYYCQQHYNTPYTFGGGTKLEIK
notes: Humanized CL25 antibody
B8: CL25_hu_9-4 (antibody, V domains shown)
VH: QVQLVQSGAEVKKPGSSVKVSCKASGYTFTSYGLSWVRQAPGQGLEWMGEIYPGSGNTYYNEKFKGRVTITADESTSTAYMELSSLRSEDTAVYYCARYDYLGSSYGFDYWGAGTTVTVSS
VL: DIQMTQSPSSLSASVGDRVTITCKASQDVSTAVAWYQQKPGKAPKLLLYSASYRYSGVPSRFSGSGSGTDYTLTISSLQPEDFATYYCQQHYNTPYTFGGGTKLEIK
notes: Humanized CL25 antibody

Biological target: T1, recombinant human CD73 (SEQ ID NO:70) (human, UniProt P21589 27-549)
T1 construct: Soluble recombinant protein in normal SPR running buffer (open conformation), the soluble enzyme assay and HDX-MS; SPR stock bought from BPS Bioscience; also called rhuCD73; CD73 in the open conformation
T1 sequence: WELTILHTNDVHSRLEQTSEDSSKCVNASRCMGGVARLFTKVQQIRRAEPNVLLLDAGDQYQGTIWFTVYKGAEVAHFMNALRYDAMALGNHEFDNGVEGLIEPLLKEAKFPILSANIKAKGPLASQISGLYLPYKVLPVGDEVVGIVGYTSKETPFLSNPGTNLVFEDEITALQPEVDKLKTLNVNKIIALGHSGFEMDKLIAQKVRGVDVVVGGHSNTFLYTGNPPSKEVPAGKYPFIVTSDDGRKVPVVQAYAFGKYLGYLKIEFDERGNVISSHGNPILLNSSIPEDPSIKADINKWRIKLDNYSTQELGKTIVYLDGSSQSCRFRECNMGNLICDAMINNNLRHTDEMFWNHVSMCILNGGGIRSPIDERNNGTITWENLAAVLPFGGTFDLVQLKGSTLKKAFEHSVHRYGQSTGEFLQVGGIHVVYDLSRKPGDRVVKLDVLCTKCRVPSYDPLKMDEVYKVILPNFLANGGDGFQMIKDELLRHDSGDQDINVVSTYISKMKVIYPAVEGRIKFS
Assay: SPR (Biacore 8K), antibody captured on anti-human Fc, CD73 as analyte, open conformation
Protocol: The SPR running buffer (10 mM HEPES, 150 mM NaCl, 3 mM EDTA and 0.05% v/v Surfactant P20, pH 7.4) was prepared from 10×HBS-EP Buffer (GE Healthcare). Anti-human Fc antibodies (GE Healthcare) were immobilized via amine coupling on all sixteen flow cells of an S series sensor chip CM5 (GE Healthcare). The immobilization levels were ˜9000 RU for all flow cells. […] The non-cleavable ADP analogue APCP (adenosine-5′-(α,β-methylene) diphosphate) with the presence of Zn²⁺ can be used to shift the CD73 conformational equilibrium from open towards closed. Therefore, recombinant CD73 was incubated with SPR running buffer in the presence of 100 μM APCP and 10 μM ZnCl₂ (closed SPR running buffer) to study the binding of anti-CD73 antibody to the CD73 in the closed conformation. To achieve this, the ABA injection feature in Biacore 8K was used. For open conformation, the ABA injection sequence started with 60 seconds injection of running buffer. Then, CD73 3-fold serial dilution concentration series prepared from CD73 stock (BPS Bioscience) and running buffer were injected for 180 seconds immediately followed by running buffer for 240 seconds. For closed conformation, the normal SPR running buffer was replaced by closed SPR running buffer. Surface was regenerated with 30 seconds injection of 3 M MgCl₂.

Question: B1 was tested. Which Kd did it give?
Answer: 2.29 nM

Question: What about the koff of the same binder?
Answer: 0.00176 s⁻¹

Question: And the kon?
Answer: 770000 M⁻¹ s⁻¹

Question: How did the Kd turn out when B2 was run?
Answer: 1.46 nM

Question: And the koff?
Answer: 0.00117 s⁻¹

Question: What about the kon of the same binder?
Answer: 799000 M⁻¹ s⁻¹

Question: What does the source list for B3?
Answer: Kd: 2.25 nM; koff: 0.000953 s⁻¹; kon: 424000 M⁻¹ s⁻¹

Question: Which results are given for B4?
Answer: Kd: 1.84 nM; koff: 0.00101 s⁻¹; kon: 550000 M⁻¹ s⁻¹

Question: B5 was tested. Which Kd did it give?
Answer: 2.02 nM

Question: And the koff?
Answer: 0.00114 s⁻¹

Question: What about the kon of the same binder?
Answer: 565000 M⁻¹ s⁻¹

Question: Which results are given for B6?
Answer: Kd: 1.55 nM; koff: 0.00111 s⁻¹; kon: 715000 M⁻¹ s⁻¹

Question: For B7, which Kd is on record?
Answer: 0.718 nM

Question: And the koff?
Answer: 0.000949 s⁻¹

Question: What about the kon of the same binder?
Answer: > 1e+06 M⁻¹ s⁻¹

Question: With B8 as the binder, how does the Kd read?
Answer: 6.9 nM

Question: And the koff?
Answer: 0.00264 s⁻¹

Question: What about the kon of the same binder?
Answer: 382000 M⁻¹ s⁻¹
